Luciferase activity of the p6A::LUC reporter (2.64 kb StSP6A promoter) in N. benthamiana leaves co-expressing StSP6A and estradiol-induced StFDL1a, against the reporter alone and ratio to parent data for three substances are collected here from publication PMC7540344.

Assay [1] concerns the target YC‐StFDL1a (Solanum tuberosum cv. Desiree).
The next assay addresses YC‐St14‐3‐3f. The experiment in a line: bimolecular fluorescence complementation (BiFC). The following applies: random fields from maximum intensity projections (n ≥ 10); opposing half-leaves, same imaging conditions; read off a plot.
Another assay has as its target YC‐StFD (UniProt A0A1E1F9A3). Put plainly: bimolecular fluorescence complementation (BiFC). The following applies: random fields from maximum intensity projections (n ≥ 10); opposing half-leaves, same imaging conditions; read off a plot.
Sequence of UniProt A0A1E1F9A3 (A0A1E1F9A3 entry or part of it): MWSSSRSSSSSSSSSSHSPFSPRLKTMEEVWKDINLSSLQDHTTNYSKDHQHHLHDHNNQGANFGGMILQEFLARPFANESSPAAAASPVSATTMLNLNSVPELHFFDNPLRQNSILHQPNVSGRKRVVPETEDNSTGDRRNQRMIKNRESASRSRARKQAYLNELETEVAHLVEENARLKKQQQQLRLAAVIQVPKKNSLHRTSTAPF
A further assay concerns the target YC‐St14‐3‐3a. The experiment in a line: bimolecular fluorescence complementation (BiFC). The following applies: random fields from maximum intensity projections (n ≥ 10); opposing half-leaves, same imaging conditions; read off a plot.
For another assay, the target named is YC‐StFDL1a (UniProt A0A1E1F9A2). Put plainly: bimolecular fluorescence complementation (BiFC). To be noted: random fields from maximum intensity projections (n ≥ 10); opposing half-leaves, same imaging conditions; read off a plot.
Sequence of UniProt A0A1E1F9A2 (A0A1E1F9A2 entry or part of it): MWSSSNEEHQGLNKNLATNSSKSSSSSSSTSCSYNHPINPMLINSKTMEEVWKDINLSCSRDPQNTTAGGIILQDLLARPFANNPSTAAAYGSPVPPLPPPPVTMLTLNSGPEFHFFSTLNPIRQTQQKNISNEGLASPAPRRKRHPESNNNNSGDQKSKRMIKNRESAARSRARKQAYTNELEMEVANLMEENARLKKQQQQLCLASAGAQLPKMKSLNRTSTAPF
Another assay deals with YC‐StCEN. The experiment in a line: bimolecular fluorescence complementation (BiFC). To be noted: random fields from maximum intensity projections (n ≥ 10); opposing half-leaves, same imaging conditions; read off a plot.

Regarding “StSP6A (tuberigen, FT orthologue of potato), 35S-driven GFP fusion (natural protein)”, in assay [1], the luciferase activity of the p6A::LUC reporter (2.64 kb StSP6A promoter) in N. benthamiana leaves co-expressing StSP6A and estradiol-induced StFDL1a, against the reporter alone turned out to be 3 fold.

As to YN‐StCEN R64K; P96L; F103A; R132K, the ratio to parent in the assay with YC‐St14‐3‐3f turned out to be 1.2; with YC‐StFD, 2.7; with YC‐St14‐3‐3a, 1.3; with YC‐StFDL1a, 2.8.

For “YN‐StFDL1a (from UniProt A0A1E1F9A2) T224A”, the ratio to parent with YC‐StCEN is 3.4.
